Assay [1] deals with MBP-BirA fusion (E. coli biotin ligase / biotin holoenzyme synthetase with N-terminal maltose binding protein) (E. coli) [MBP: P0AEX9]. Nature of the assay: phage ELISA on plate-coated MBP-BirA, anti-M13-HRP detection; reference: same phage unmodified. (In general: In an ELISA, binding on a coated surface is turned into a signal by an enzyme label.)
For assay [2], the target named is streptavidin (Prozyme) (UniProt P22629). Nature of the assay: phage ELISA on plate-coated streptavidin, both with and without 10 mM DTT; reference: Ser-Ser phage.
streptavidin (Prozyme), sequence (P22629 37-163 limits assumed): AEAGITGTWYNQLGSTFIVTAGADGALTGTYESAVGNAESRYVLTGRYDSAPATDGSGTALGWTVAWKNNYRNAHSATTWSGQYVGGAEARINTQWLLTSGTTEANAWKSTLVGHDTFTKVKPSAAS
The target is the same in assay [3]. Nature of the assay: phage ELISA on plate-coated streptavidin, anti-M13-HRP detection.

In the case of “biotin-modified M13 phage clone displaying VPKQSecCQN (peptide)”, the fold increase of affinity, biotin-modified against unmodified phage in assay [1] was found to be 5 fold. “M13 phage displaying the selenosulfide constrained sequence Cys-HPQGPT-Sec (peptide)” yielded a tighter binding against the linear Ser-Ser sequence (orders of magnitude) with streptavidin (Prozyme) [2] of 2. In the case of “M13 phage displaying the disulfide constrained sequence Cys-HPQGPP-Cys (peptide)”, the reduction of binding in 10 mM DTT against no DTT (orders of magnitude) with streptavidin (Prozyme) [3] is > 2.

On to “biotin-modified M13 phage clone displaying CLQPSecYGS (peptide)”, for which the fold increase of affinity, biotin-modified against unmodified phage in assay [1] was 5 fold.

On to “biotin-modified M13 phage clone displaying VTAKSecCYP (peptide)”, for which the fold increase of affinity, biotin-modified against unmodified phage in assay [1] is 5 fold.

(Values after patent US20050048548A1.)
